Tests used:
[1] = molecular target: T1, ICOS on CHO cells expressing ICOS (UniProt Q9Y6W8 21-199, limits assumed); assay: competition, flow cytometry: competitor labelled ICOSL on CHO cells expressing ICOS
T1 construct: whole, on cells
T1 sequence (looked up): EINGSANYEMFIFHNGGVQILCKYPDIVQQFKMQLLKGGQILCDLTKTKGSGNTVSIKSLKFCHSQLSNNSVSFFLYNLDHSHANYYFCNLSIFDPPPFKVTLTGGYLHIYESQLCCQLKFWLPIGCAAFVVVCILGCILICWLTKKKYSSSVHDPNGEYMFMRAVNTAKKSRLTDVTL

[2] = molecular target: T2, CD28 on CHO cells expressing CD28 (UniProt P10747 19-220, limits assumed); assay: competition, flow cytometry: competitor CD80 on CHO cells expressing CD28
T2 construct: whole, on cells

[3] = molecular target: T1, ICOS on CHO cells expressing ICOS; assay: flow cytometry on CHO cells expressing ICOS, bound protein detected with anti-human IgG-PE, median fluorescence against [pM]
human CD28 = molecular target: T3, human CD28 (human, UniProt P10747 19-220); assay: flow cytometry, transfected HEK293 cells
T3 construct: whole, on cells
Method: (§1) Binding was assessed substantially as described in Example 1 on transfected HEK293 cells generated to express the full-length surface ligands CD28, ICOS or CTLA-4 from human, cynomolgus monkey, rat or mouse. Transfection was carried out using a transient transfection system (Life Technologies, USA). As a control, binding to mock (non-transfected) cells also was assessed.

cynomolgus monkey ICOS = molecular target: T4, cynomolgus monkey ICOS (cynomolgus monkey, UniProt A0A2K5TQR6 21-168); assay: flow cytometry, transfected HEK293 cells
T4 sequence: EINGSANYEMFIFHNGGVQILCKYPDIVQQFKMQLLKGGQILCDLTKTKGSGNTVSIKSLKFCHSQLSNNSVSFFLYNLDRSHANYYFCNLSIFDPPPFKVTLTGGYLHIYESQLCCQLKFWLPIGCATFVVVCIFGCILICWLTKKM
Method: as §1

mouse CD28 = molecular target: T5, mouse CD28 (mouse, UniProt P31041 20-218); assay: flow cytometry, transfected HEK293 cells
T5 construct: whole, on cells
Method: as §1

cynomolgus monkey CD28 = molecular target: T6, cynomolgus monkey CD28 (cynomolgus monkey, UniProt Q0PDN3 19-220); assay: flow cytometry, transfected HEK293 cells
T6 construct: whole, on cells
Method: as §1

mouse ICOS = molecular target: T7, mouse ICOS (mouse, UniProt Q9WVS0 21-200); assay: flow cytometry, transfected HEK293 cells
T7 construct: whole, on cells
T7 sequence (looked up): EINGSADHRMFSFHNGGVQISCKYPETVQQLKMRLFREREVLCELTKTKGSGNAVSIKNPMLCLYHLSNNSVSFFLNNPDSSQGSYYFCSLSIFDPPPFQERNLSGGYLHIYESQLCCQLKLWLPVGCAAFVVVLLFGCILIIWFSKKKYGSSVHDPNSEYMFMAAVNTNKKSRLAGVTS
Method: as §1

mouse CTLA-4 = molecular target: T8, mouse CTLA-4 (mouse, UniProt P09793 36-223); assay: flow cytometry, transfected HEK293 cells
T8 construct: whole, on cells
Method: as §1

human ICOS = molecular target: T9, human ICOS (human, UniProt Q9Y6W8 21-199); assay: flow cytometry, transfected HEK293 cells
T9 construct: whole, on cells
T9 sequence (looked up): T1 sequence (looked up)
Method: as §1

rat CTLA-4 = rat CTLA-4 (rat, UniProt Q62859 36-223); assay: flow cytometry, transfected HEK293 cells
Method: as §1

cynomolgus monkey CTLA-4 = molecular target: T10, cynomolgus monkey CTLA-4 (cynomolgus monkey, UniProt G7PL88 36-223); assay: flow cytometry, transfected HEK293 cells
T10 construct: whole, on cells
Method: as §1

human CTLA-4 = molecular target: T11, human CTLA-4 (human, UniProt P16410 36-223); assay: flow cytometry, transfected HEK293 cells
T11 construct: whole, on cells
Method: as §1

rat ICOS = molecular target: T12, rat ICOS (rat, UniProt Q9R1T7 21-200); assay: flow cytometry, transfected HEK293 cells
T12 construct: whole, on cells
T12 sequence (looked up): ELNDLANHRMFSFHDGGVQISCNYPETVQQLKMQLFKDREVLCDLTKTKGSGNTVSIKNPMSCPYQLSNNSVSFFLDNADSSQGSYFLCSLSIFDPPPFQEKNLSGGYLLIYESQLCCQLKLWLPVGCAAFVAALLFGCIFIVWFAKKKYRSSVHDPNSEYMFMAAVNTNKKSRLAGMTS
Method: as §1

rat CD28 = molecular target: T13, rat CD28 (rat, UniProt P31042 20-218); assay: flow cytometry, transfected HEK293 cells
T13 construct: whole, on cells
Method: as §1

[4] = molecular target: T2, CD28 on CHO cells expressing CD28; assay: flow cytometry on CHO cells expressing CD28, bound protein detected with anti-human IgG-PE, median fluorescence against [pM]
[5] = molecular target: T2, CD28 on CHO cells expressing CD28; assay: competition, flow cytometry: competitor labelled CD86 on CHO cells expressing CD28
[6] = molecular target: T14, ICOSL labeled with AlexaFluor-647 (UniProt O75144 19-256, limits assumed, labeled with AlexaFluor-647); assay: competition, flow cytometry: labelled ICOSL on CHO cells expressing ICOS
T14 sequence (looked up): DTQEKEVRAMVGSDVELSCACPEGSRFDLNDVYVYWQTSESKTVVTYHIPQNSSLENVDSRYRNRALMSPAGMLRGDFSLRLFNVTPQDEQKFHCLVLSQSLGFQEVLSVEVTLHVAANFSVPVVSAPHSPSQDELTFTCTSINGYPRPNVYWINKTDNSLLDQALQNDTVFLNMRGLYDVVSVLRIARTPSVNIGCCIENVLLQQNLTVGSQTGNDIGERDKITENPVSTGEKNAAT

[7] = molecular target: T15, human CD28, full-length, on transfected cells (human, UniProt P10747 19-220); assay: flow cytometry on CHO cells expressing CD28, anti-human IgG-PE
T15 construct: whole, on cells; also called CD28 tfxn

[8] = molecular target: T16, rat ICOS, full-length, on transfected HEK293 cells (rat, UniProt Q9R1T7 21-200); assay: flow cytometry on transfected HEK293 cells
T16 construct: whole, on cells
T16 sequence (looked up): T12 sequence (looked up)
Method: (§2) Binding studies were carried out on transfected HEK293 cells generated to express the full-length mammalian (human) surface ligands, CD28, ICOS or CTLA-4, using a transient transfection system (Life Technologies, USA). As a control, binding to mock (non-transfected) cells also was assessed. For staining by flow cytometry, 200,000 cells of appropriate transient transfection or negative control (mock) were plated in 96 well round bottom plates, and, then incubated in staining buffer (PBS, phosphate buffered saline; 1% BSA, bovine serum albumin; and 0.1% sodium azide) for 20 minutes to block non-specific binding. Cells were resuspended in staining buffer containing 100 nM to 1 nM variant immunomodulatory protein in 50 μL. Mean Fluorescence Intensity (MFI) was calculated for each transfectant and negative parental line with Cell Quest Pro software (Becton Dickinson, USA) or a Hypercyt flow cytometer (Intellicyte, USA).
as §1

[9] = molecular target: T17, mouse CD28, full-length, on transfected HEK293 cells (mouse, UniProt P31041 20-218); assay: flow cytometry on transfected HEK293 cells
T17 construct: whole, on cells
Method: as §2, §1

[10] = molecular target: T18, mouse ICOS, full-length, on transfected HEK293 cells (mouse, UniProt Q9WVS0 21-200); assay: flow cytometry on transfected HEK293 cells
T18 construct: whole, on cells
T18 sequence (looked up): T7 sequence (looked up)
Method: as §2, §1

[11] = molecular target: T19, human CTLA-4, full-length, on transfected cells (human, UniProt P16410 36-223); assay: flow cytometry on transfected HEK293 cells
T19 construct: whole, on cells; also called CTLA-4 tfxn
Method: as §2, §1

[12] = molecular target: T20, mouse CTLA-4, full-length, on transfected HEK293 cells (mouse, UniProt P09793 36-223); assay: flow cytometry on transfected HEK293 cells
T20 construct: whole, on cells
Method: as §2, §1

[13] = molecular target: T21, rat CD28, full-length, on transfected HEK293 cells (rat, UniProt P31042 20-218); assay: flow cytometry on transfected HEK293 cells
T21 construct: whole, on cells
Method: as §2, §1

[14] = molecular target: T22, human ICOS, full-length, on transfected cells (human, UniProt Q9Y6W8 21-199); assay: flow cytometry on CHO cells expressing ICOS, anti-human IgG-PE
T22 construct: whole, on cells; also called ICOS tfxn
T22 sequence (looked up): T1 sequence (looked up)

[15] = molecular target: CTLA-4 receptor loaded onto anti-human capture sensor (ForteBio Octet AHC) (UniProt P16410 37-162, limits assumed); assay: ForteBio Octet BLI, receptor on AHC sensor
Method: (§3) Each titration was globally fit to calculate the association (kₒₙ) and dissociation (Kdis) of each protein. […] The dissociation constant (KD) was calculated and compared to wildtype to determine a fold improvement value (fold imp.).

[16] = molecular target: CD28 receptor loaded onto anti-human capture sensor (ForteBio Octet AHC) (UniProt P10747 19-152); assay: ForteBio Octet BLI, receptor on AHC sensor
Method: as §3

[17] = molecular target: T23, ICOS receptor loaded onto anti-human capture sensor (ForteBio Octet AHC) (UniProt Q9Y6W8 21-141, limits assumed); assay: ForteBio Octet BLI, receptor on AHC sensor
T23 sequence (looked up): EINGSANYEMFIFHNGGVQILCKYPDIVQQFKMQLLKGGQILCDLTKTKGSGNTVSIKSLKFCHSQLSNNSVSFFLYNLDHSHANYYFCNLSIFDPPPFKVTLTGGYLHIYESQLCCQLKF
Method: as §3

B1: variant ICOSL IgV-Fc (variant ICOSL IgV N52H/N57Y/Q100R, SEQ ID NO: 36, fused to an inert human IgG1 Fc, e.g. SEQ ID NO: 42) (Fc fusion)
chain: DTQEKEVRAMVGSDVELSCACPEGSRFDLNDVYVYWQTSESKTVVTYHIPQHSSLEYVDSRYRNRALMSPAGMLRGDFSLRLFNVTPQDEQKFHCLVLSRSLGFQEVLSVEVTLHVAANFSVEPKSSDKTHTCPPCPAPEAEGAPSVFLFPPKPKDTLMISRTPEVTCVVVDVSHEDPEVKFNWYVDGVEVHNAKTKPREEQYNSTYRVVSVLTVLHQDWLNGKEYKCKVSNKALPAPIEKTISKAKGQPREPQVYTLPPSRDELTKNQVSLTCLVKGFYPSDIAVEWESNGQPENNYKTTPPVLDSDGSFFLYSKLTVDKSRWQQGNVFSCSVMHEALHNHYTQKSLSLSPG
notes: also called variant ICOSL vIgD-Fc fusion molecule
Question: Which results are given for B1?
Answer: IC50 [1]: 4.3 nM; IC50 [2]: 1 nM; EC50 (read off the curve) [3]: ~3 nM; EC50 (human CD28): 0.648 nM; EC50 (cynomolgus monkey ICOS): 0.579 nM; EC50 (mouse CD28): 1.15 nM; EC50 (cynomolgus monkey CD28): 0.44 nM; EC50 (mouse ICOS): 1.43 nM; EC50 (mouse CTLA-4): 1.11 nM; EC50 (human ICOS): 0.633 nM; EC50 (rat CTLA-4): 0.793 nM; EC50 (cynomolgus monkey CTLA-4): 0.704 nM; EC50 (human CTLA-4): 0.68 nM; EC50 (rat ICOS): 1.03 nM; EC50 (rat CD28): 1.06 nM; EC50 (read off the curve) [4]: ~3 nM; IC50 [5]: 0.7 nM

B2: prezalumab (AMG-557; anti-ICOSL, Creative Biolabs) (antibody, V domains shown)
VH: EVQLVESGGGLVQPGGSLRLSCAASGFTFSSYWMSWVRQAPGKGLEWVAYIKQDGNEKYYVDSVKGRFTISRDNAKNSLYLQMNSLRAEDTAVYYCAREGILWFGDLPTFWGQGTLVTVSS
VL: DIQMTQSPSSLSASVGDRVTITCRASQGISNWLAWYQQKPEKAPKSLIYAASSLQSGVPSRFSGSGSGTDFTLTISSLQPEDFATYYCQQYDSYPRTFGQGTKVEIK
Question: Which IC50 [6] does the source give for B2 here?
Answer: 23.3 nM

B3: variant ICOSL IgV-Fc (N52H/N57Y/Q100R) (Fc fusion)
chain: DTQEKEVRAMVGSDVELSCACPEGSRFDLNDVYVYWQTSESKTVVTYHIPQHSSLEYVDSRYRNRALMSPAGMLRGDFSLRLFNVTPQDEQKFHCLVLSRSLGFQEVLSVEVTLHVAANFSVGGGGSGGGGSEPKSSDKTHTCPPCPAPEAEGAPSVFLFPPKPKDTLMISRTPEVTCVVVDVSHEDPEVKFNWYVDGVEVHNAKTKPREEQYNSTYRVVSVLTVLHQDWLNGKEYKCKVSNKALPAPIEKTISKAKGQPREPQVYTLPPSRDELTKNQVSLTCLVKGFYPSDIAVEWESNGQPENNYKTTPPVLDSDGSFFLYSKLTVDKSRWQQGNVFSCSVMHEALHNHYTQKSLSLSPG
notes: also called variant ICOSL vIgD-Fc fusion molecule; ICOS-IgV Fc (N52H/N57Y/Q100R)
Question: Does B3 bind [7]?
Answer: binds

Question: Does B3 bind [8]?
Answer: binds

Question: Does B3 bind [9]?
Answer: binds

Question: Does B3 bind [10]?
Answer: binds

Question: Does B3 bind [11]?
Answer: binds

Question: Does B3 bind [12]?
Answer: binds

Question: Does B3 bind [13]?
Answer: binds

Question: Does B3 bind [14]?
Answer: binds

B4: wildtype PD-L2 ED-Fc fusion molecule (Fc fusion, UniProt Q9BQ51 20-220, looked up)
chain: LFTVTVPKELYIIEHGSNVTLECNFDTGSHVNLGAITASLQKVENDTSPHRERATLLEEQLPLGKASFHIPQVQVRDEGQYQCIIIYGVAWDYKYLTLKVKASYRKINTHILKVPETDEVELTCQATGYPLAEVSWPNVSVPANTSHSRTPEGLYQVTSVLRLKPPPGRNFSCVFWNTHVRELTLASIDLQSQMEPRTHPT
notes: extracellular domain; Control protein in the ForteBio assays; also called PD-L2-Fc; not shown: Fc part and any linker are not described
Question: With B4 as the binder, how does the Response [15] read?
Answer: 0

Question: And the Response [16]?
Answer: -0.04

Question: What about the Response [17] of the same binder?
Answer: 0.03

Reference: patent US20220218785A1 (ALPINE IMMUNE SCIENCES, published 2022)
